Test results: publication PMC5519287 (Cell reports, 2017)

Target: the molecule itself
Test: single molecule analysis

B1: EGFP-S1C 4KA (domain or fragment, UniProt Q13586 342-465, looked up)
chain: YAPEALQKWLQLTHEVEVQYYNIKKQNAEKQLLVAKEGAEAIAAARNTLFGTFHVAHSSSLDDVDHKILTAKQALSEVTAALRERLHRWQQIEILCGFQIVNNPGIHSLVAALNIDPSWMGSTR
  stoichiometry N: 2
